Laboratory results from paper doi:10.1101/2023.06.26.546551, “Unmasking Crucial Residues in Adipose Triglyceride Lipase (ATGL) for Co-Activation with Comparative Gene Identification-58 (CGI-58)” (bioRxiv, 2023).
Positions count from the first letter of the chain named.

Key:
Assay in all cases: cell-based or functional assay
[1] = biological target: T1, smt3-mATGL288-StrepII (mouse adipose triglyceride lipase truncated after D288), wild type (mouse, UniProt Q8BJ56 1-288)
T1 sequence (looked up): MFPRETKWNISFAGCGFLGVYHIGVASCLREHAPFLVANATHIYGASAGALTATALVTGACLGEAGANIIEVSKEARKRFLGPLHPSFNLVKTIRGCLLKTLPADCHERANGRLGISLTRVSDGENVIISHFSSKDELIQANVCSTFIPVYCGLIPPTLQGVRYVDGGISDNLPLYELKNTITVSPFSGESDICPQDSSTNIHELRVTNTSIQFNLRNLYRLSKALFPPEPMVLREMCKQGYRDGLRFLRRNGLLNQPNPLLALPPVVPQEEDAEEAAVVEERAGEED

[2] = biological target: T2, smt3-mATGL288-StrepII I212A (mouse, UniProt Q8BJ56 1-288, I212A)
T2 sequence (looked up): T1 sequence (looked up) with I212A

[3] = biological target: T3, smt3-mATGL288-StrepII N215A (mouse, UniProt Q8BJ56 1-288, N215A)
T3 sequence (looked up): T1 sequence (looked up) with N215A

[4] = biological target: T4, smt3-mATGL288-StrepII N209A (mouse, UniProt Q8BJ56 1-288, N209A)
T4 sequence (looked up): T1 sequence (looked up) with N209A

[5] = biological target: T5, smt3-mATGL288-StrepII I212S (mouse, UniProt Q8BJ56 1-288, I212S)
T5 sequence (looked up): T1 sequence (looked up) with I212S

B1: smt3-mCGI-58-His6 (mouse comparative gene identification-58) (natural protein, UniProt Q9DBL9 1-351, looked up)
chain: MKAMAAEEEVDSADAGGGSGWLTGWLPTWCPTSTSHLKEAEEKMLKCVPCTYKKEPVRISNGNRIWTLMFSHNISSKTPLVLLHGFGGGLGLWALNFEDLSTDRPVYAFDLLGFGRSSRPRFDSDAEEVENQFVESIEEWRCALRLDKMILLGHNLGGFLAAAYSLKYPSRVSHLILVEPWGFPERPDLADQERPIPVWIRALGAALTPFNPLAGLRIAGPFGLSLVQRLRPDFKRKYSSMFEDDTVTEYIYHCNVQTPSGETAFKNMTIPYGWAKRPMLQRIGGLHPDIPVSVIFGARSCIDGNSGTSIQSLRPKSYVKTIAILGAGHYVYADQPEEFNQKVKEICHTVD
- EC50 of mCGI-58 for co-activation of the TG hydrolase activity of mATGL288 (25 ug bacterial lysate, purified mCGI-58 up to 2300 nM) [1]: 178 nM
- EC50 of mCGI-58 for co-activation of the TG hydrolase activity of mATGL288 I212A (25 ug bacterial lysate, purified mCGI-58 up to 2300 nM) [2]: ~500 nM
- EC50 of mCGI-58 for co-activation of the TG hydrolase activity of mATGL288 N215A (25 ug bacterial lysate, purified mCGI-58 up to 2300 nM) [3]: ~200 nM
- EC50 of mCGI-58 for co-activation of the TG hydrolase activity of mATGL288 N209A (25 ug bacterial lysate, purified mCGI-58 up to 2300 nM) [4]: ~500 nM
- EC50 of mCGI-58 for co-activation of the TG hydrolase activity of mATGL288 I212S (25 ug bacterial lysate, purified mCGI-58 up to 2300 nM) [5]: ~200 nM
